The values below come from patent US10280205B2, “Method for treating cancer with an activated T lymphocyte that selectively recognizes a cancer cell consisting of specific peptide” (immatics biotechnologies GmbH, priority 2015, dated 2019).

The assay addresses HLA-A*02:01 (Homo sapiens, UniProt P04439, D140Y/D185E/D98H/E176V/E277Q/G131W/G231S/I119V/I121R/I166T/I218V/L300P/L318F/N151K/N90K/P208A/P217A/Q86G/Q94H/R138H/R169H/T345S). The assay can be described thus: MHC binding assay: UV-ligand exchange with beta2m ELISA (exchange yield). Particulars: binding to HLA-A*02:01, β2m ELISA. In a few lines: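 Peptide–HLA-A*02:01 complexes formed by UV-induced exchange of a photocleavable ligand for the test peptide. Exchange products diluted 100-fold and captured on streptavidin-coated plates. Stabilized complexes detected with HRP anti-β2m (1 h, 37° C.) and TMB, A450; exchange yield reported.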

As to “75 (GLLEVMVNL; listed as Homo sapiens) [compound 75]”, the “Peptide exchange (MHC class I binding score, peptide exchange yield)” value (shortened to “Peptide exchange”) is ““+++” (≥50 = +++)”.

As to “390 (ALFMKQIYL; listed as Homo sapiens) [compound 390]”, the “Peptide exchange” value is ““+++” (≥50 = +++)”.

As to “54 (SLLEQGKEPWMV; listed as Homo sapiens) [compound 54]”, the “Peptide exchange” value is ““+++” (≥50 = +++)”.

Regarding “386 (ILFRYPLTI; listed as Homo sapiens) [compound 386]”, the “Peptide exchange” value is on record as ““+++” (≥50 = +++)”.

Take “111 (YVWGFYPAEV; listed as Homo sapiens) [compound 111]”: the “Peptide exchange” value is given as ““+++” (≥50 = +++)”.

“398 (KLLEEDGTIITL; listed as Homo sapiens) [compound 398]”: the “Peptide exchange” value was ““++” (≥20% = ++)”.

For the substance “574 (YLLQEPPRTV; listed as Homo sapiens) [compound 574]”, the “Peptide exchange” value is ““++” (≥20% = ++)”.

In the case of “465 (QLCDLNAEL; listed as Homo sapiens) [compound 465]”, the “Peptide exchange” value is listed as ““+++” (≥50 = +++)”.

In the case of “270 (LLLDEEGTFSL; listed as Homo sapiens) [compound 270]”, the “Peptide exchange” value was ““++” (≥20% = ++)”.

On to “454 (KLPPPPPQA; listed as Homo sapiens) [compound 454]”, for which the “Peptide exchange” value is listed as ““+++” (≥50 = +++)”.

For “493 (GLLGEKTQDLIGV; listed as Homo sapiens) [compound 493]”, the “Peptide exchange” value is given as ““+++” (≥50 = +++)”.

On to “94 (YLIDIKTIAI; listed as Homo sapiens) [compound 94]”, for which the “Peptide exchange” value is given as ““++” (≥20% = ++)”.

Turning to “181 (LLWAGTAFQV; listed as Homo sapiens) [compound 181]”, the “Peptide exchange” value is given as ““+++” (≥50 = +++)”.

With “153 (FLIANVLYL; listed as Homo sapiens) [compound 153]”, the “Peptide exchange” value was ““+” (≥10% = +)”.

Consider “14 (AAYGGLNEKSFV; listed as Homo sapiens) [compound 14]”, for which the “Peptide exchange” value is ““+++” (≥50 = +++)”.

On to “401 (ILLDDTGLAYI; listed as Homo sapiens) [compound 401]”, for which the “Peptide exchange” value is recorded as ““+++” (≥50 = +++)”.

As for “358 (ALDEYTSEL; listed as Homo sapiens) [compound 358]”, the “Peptide exchange” value is given as ““++++” (≥75% = ++++)”.

For “346 (LLDSKVPSV; listed as Homo sapiens) [compound 346]”, the “Peptide exchange” value is ““+++” (≥50 = +++)”.

On to “64 (YAAPGGLIGV; listed as Homo sapiens) [compound 64]”, for which the “Peptide exchange” value is ““++” (≥20% = ++)”.

Turning to “517 (LLMPIPEGLTL; listed as Homo sapiens) [compound 517]”, the “Peptide exchange” value is given as ““+++” (≥50 = +++)”.

As for “16 (VLFQGQASL; listed as Homo sapiens) [compound 16]”, the “Peptide exchange” value was ““+++” (≥50 = +++)”.

As for “241 (SLVEVNPAYSV; listed as Homo sapiens) [compound 241]”, the “Peptide exchange” value is recorded as ““+++” (≥50 = +++)”.

For the substance “618 (VLFDSESIGIYV; listed as Homo sapiens) [compound 618]”, the “Peptide exchange” value is ““+++” (≥50 = +++)”.

Consider “531 (YTLPIASSIRL; listed as Homo sapiens) [compound 531]”, for which the “Peptide exchange” value is reported as ““+++” (≥50 = +++)”.

“282 (LLADVVPTT; listed as Homo sapiens) [compound 282]”: the “Peptide exchange” value is ““+++” (≥50 = +++)”.

In the case of “356 (KLLGKLPEL; listed as Homo sapiens) [compound 356]”, the “Peptide exchange” value is ““+++” (≥50 = +++)”.

Consider “469 (YLASDEITTV; listed as Homo sapiens) [compound 469]”, for which the “Peptide exchange” value is ““+++” (≥50 = +++)”.

With “296 (FMEGAIIYV; listed as Homo sapiens) [compound 296]”, the “Peptide exchange” value is recorded as ““+++” (≥50 = +++)”.

In the case of “152 (ILFEDIFDV; listed as Homo sapiens) [compound 152]”, the “Peptide exchange” value is recorded as ““+++” (≥50 = +++)”.

In the case of “336 (ILLTAIVQV; listed as Homo sapiens) [compound 336]”, the “Peptide exchange” value was ““+++” (≥50 = +++)”.

“254 (TLLAFIMEL; listed as Homo sapiens) [compound 254]”: the “Peptide exchange” value is recorded as ““+++” (≥50 = +++)”.

With “527 (FLLEPGNLEV; listed as Homo sapiens) [compound 527]”, the “Peptide exchange” value is listed as ““++++” (≥75% = ++++)”.

In the case of “399 (YLFEPLYHV; listed as Homo sapiens) [compound 399]”, the “Peptide exchange” value was ““+++” (≥50 = +++)”.

As to “530 (VMYADIGGMDI; listed as Homo sapiens) [compound 530]”, the “Peptide exchange” value is ““+++” (≥50 = +++)”.

In the case of “387 (ALFQATAEV; listed as Homo sapiens) [compound 387]”, the “Peptide exchange” value was ““++++” (≥75% = ++++)”.

On to “148 (ALNPEIVSV; listed as Homo sapiens) [compound 148]”, for which the “Peptide exchange” value is listed as ““++” (≥20% = ++)”.

For the substance “255 (VLASYNLTV; listed as Homo sapiens) [compound 255]”, the “Peptide exchange” value is ““+++” (≥50 = +++)”.

Turning to “220 (LLQKFVPEI; listed as Homo sapiens) [compound 220]”, the “Peptide exchange” value is ““++” (≥20% = ++)”.

For the substance “351 (SLIPNLRNV; listed as Homo sapiens) [compound 351]”, the “Peptide exchange” value is recorded as ““+++” (≥50 = +++)”.

Regarding “97 (SLINGSFLV; listed as Homo sapiens) [compound 97]”, the “Peptide exchange” value is given as ““+++” (≥50 = +++)”.

Regarding “159 (GLVGNPLPSV; listed as Homo sapiens) [compound 159]”, the “Peptide exchange” value was ““++++” (≥75% = ++++)”.

As to “22 (IMEENPGIFAV; listed as Homo sapiens) [compound 22]”, the “Peptide exchange” value was ““+++” (≥50 = +++)”.

Consider “101 (ILVGGGALATV; listed as Homo sapiens) [compound 101]”, for which the “Peptide exchange” value is ““+++” (≥50 = +++)”.

“446 (QLIPALAKV; listed as Homo sapiens) [compound 446]”: the “Peptide exchange” value is given as ““+++” (≥50 = +++)”.

In the case of “486 (AVMESIQGV; listed as Homo sapiens) [compound 486]”, the “Peptide exchange” value is reported as ““+++” (≥50 = +++)”.

Take “90 (TLLQIIETV; listed as Homo sapiens) [compound 90]”: the “Peptide exchange” value is given as ““+++” (≥50 = +++)”.
